According to patent publication US20140274782A1, “AFFINITY REAGENTS AND METHODS FOR DETECTION, PURIFICATION, AND PROTEOMIC ANALYSIS OF METHYLATED PROTEINS” (The Board of Trustees of the Leland Stanford Junior …, priority 2013, published 2014):

B1: CAND1 (protein, UniProt Q86VP6 2-1230, looked up)
Cullin-associated …: ASASYHISNLLEKMTSSDKDFRFMATNDLMTELQKDSIKLDDDSERKVVKMILKLLEDKNGEVQNLAVKCLGPLVSKVKEYQVETIVDTLCTNMLSDKEQLRDISSIGLKTVIGELPPASSGSALAANVCKKITGRLTSAIAKQEDVSVQLEALDIMADMLSRQGGLLVNFHPSILTCLLPQLTSPRLAVRKRTIIALGHLVMSCGNIVFVDLIEHLLSELSKNDSMSTTRTYIQCIAAISRQAGHRIGEYLEKIIPLVVKFCNVDDDELREYCIQAFESFVRRCPKEVYPHVSTIINICLKYLTYDPNYNYDDEDEDENAMDADGGDDDDQGSDDEYSDDDDMSWKVRRAAAKCLDAVVSTRHEMLPEFYKTVSPALISRFKEREENVKADVFHAYLSLLKQTRPVQSWLCDPDAMEQGETPLTMLQSQVPNIVKALHKQMKEKSVKTRQCCFNMLTELVNVLPGALTQHIPVLVPGIIFSLNDKSSSSNLKIDALSCLYVILCNHSPQVFHPHVQALVPPVVACVGDPFYKITSEALLVTQQLVKVIRPLDQPSSFDATPYIKDLFTCTIKRLKAADIDQEVKERAISCMGQIICNLGDNLGSDLPNTLQIFLERLKNEITRLTTVKALTLIAGSPLKIDLRPVLGEGVPILASFLRKNQRALKLGTLSALDILIKNYSDSLTAAMIDAVLDELPPLISESDMHVSQMAISFLTTLAKVYPSSLSKISGSILNELIGLVRSPLLQGGALSAMLDFFQALVVTGTNNLGYMDLLRMLTGPVYSQSTALTHKQSYYSIAKCVAALTRACPKEGPAVVGQFIQDVKNSRSTDSIRLLALLSLGEVGHHIDLSGQLELKSVILEAFSSPSEEVKSAASYALGSISVGNLPEYLPFVLQEITSQPKRQYLLLHSLKEIISSASVVGLKPYVENIWALLLKHCECAEEGTRNVVAECLGKLTLIDPETLLPRLKGYLISGSSYARSSVVTAVKFTISDHPQPIDPLLKNCIGDFLKTLEDPDLNVRRVALVTFNSAAHNKPSLIRDLLDTVLPHLYNETKVRKELIREVEMGPFKHTVDDGLDIRKAAFECMYTLLDSCLDRLDIFEFLNHVEDGLKDHYDIKMLTFLMLVRLSTLCPSAVLQRLDRLVEPLRATCTTKVKANSVKQEFEKQDELKRSAMRAVAALLTIPEAEKSPLMSEFQSQISSNPELAAIFESIQKDSSSTNLESMDTS
B2: DDX23 (protein, UniProt Q9BUQ8 1-820, looked up)
Probable ATP-dependent RNA …: MAGELADKKDRDASPSKEERKRSRTPDRERDRDRDRKSSPSKDRKRHRSRDRRRGGSRSRSRSRSKSAERERRHKERERDKERDRNKKDRDRDKDGHRRDKDRKRSSLSPGRGKDFKSRKDRDSKKDEEDEHGDKKPKAQPLSLEELLAKKKAEEEAEAKPKFLSKAEREAEALKRRQQEVEERQRMLEEERKKRKQFQDLGRKMLEDPQERERRERRERMERETNGNEDEEGRQKIREEKDKSKELHAIKERYLGGIKKRRRTRHLNDRKFVFEWDASEDTSIDYNPLYKERHQVQLLGRGFIAGIDLKQQKREQSRFYGDLMEKRRTLEEKEQEEARLRKLRKKEAKQRWDDRHWSQKKLDEMTDRDWRIFREDYSITTKGGKIPNPIRSWKDSSLPPHILEVIDKCGYKEPTPIQRQAIPIGLQNRDIIGVAETGSGKTAAFLIPLLVWITTLPKIDRIEESDQGPYAIILAPTRELAQQIEEETIKFGKPLGIRTVAVIGGISREDQGFRLRMGCEIVIATPGRLIDVLENRYLVLSRCTYVVLDEADRMIDMGFEPDVQKILEHMPVSNQKPDTDEAEDPEKMLANFESGKHKYRQTVMFTATMPPAVERLARSYLRRPAVVYIGSAGKPHERVEQKVFLMSESEKRKKLLAILEQGFDPPIIIFVNQKKGCDVLAKSLEKMGYNACTLHGGKGQEQREFALSNLKAGAKDILVATDVAGRGIDIQDVSMVVNYDMAKNIEDYIHRIGRTGRAGKSGVAITFLTKEDSAVFYELKQAILESPVSSCPPELANHPDAQHKPGTILTKKRREETIFA
B3: NUDT16L1 (protein, UniProt Q9BRJ7 1-211, looked up)
Tudor-interacting repair …: MSTAAVPELKQISRVEAMRLGPGWSHSCHAMLYAANPGQLFGRIPMRFSVLMQMRFDGLLGFPGGFVDRRFWSLEDGLNRVLGLGLGCLRLTEADYLSSHLTEGPHRVVAHLYARQLTLEQLHAVEISAVHSRDHGLEVLGLVRVPLYTQKDRVGGFPNFLSNAFVSTAKCQLLFALKVLNMMPEEKLVEALAAATEKQKKALEKLLPASS
B4: NTHL1 (protein, UniProt P78549 23-304, looked up)
Endonuclease III-like protein …: GCREEPGPLRRREAAAEARKSHSPVKRPRKAQRLRVAYEGSDSEKGEGAEPLKVPVWEPQDWQQQLVNIRAMRNKKDAPVDHLGTEHCYDSSAPPKVRRYQVLLSLMLSSQTKDQVTAGAMQRLRARGLTVDSILQTDDATLGKLIYPVGFWRSKVKYIKQTSAILQQHYGGDIPASVAELVALPGVGPKMAHLAMAVAWGTVSGIAVDTHVHRIANRLRWTKKATKSPEETRAALEEWLPRELWHEINGLLVGFGQQTCLPVHPRCHACLNQALCPAAQGL

What was measured:
G9a and GLP = target: T1, G9a and GLP (Homo sapiens, UniProt Q96KQ7+Q9H9B1); assay: Triple SILAC pull-down after UNC0638 treatment of 293T cells, DMSO/UNC0638 ratio of protein captured by 3×MBT; type: cell-based; set-up: cells were treated for 24 hours with UNC0638 at 2.5 μM or DMSO vehicle control; endogenous in cells; host or cells: HEK 293T; details: for Relative to UNC0638 UNC Heavy: UNC0638 in heavy SILAC media; for Relative to UNC0638 UNC Light: UNC0638 in light SILAC media; for Relative to UNC0638 Average: average of UNC Light and UNC Heavy experiments; for Candidate G9a/GLP target: reduced association with 3xMBT after UNC0638 treatment;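 as to all read-outs here: mass spectrometry (Q-Exactive) SILAC quantitation, DMSO/UNC0638 ratio computed after subtracting 3×MBTD355N mutant pull-down background, only proteins with at least twofold 3×MBT over mutant signal considered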
T1 sequence (Q96KQ7 2-1210 limits assumed): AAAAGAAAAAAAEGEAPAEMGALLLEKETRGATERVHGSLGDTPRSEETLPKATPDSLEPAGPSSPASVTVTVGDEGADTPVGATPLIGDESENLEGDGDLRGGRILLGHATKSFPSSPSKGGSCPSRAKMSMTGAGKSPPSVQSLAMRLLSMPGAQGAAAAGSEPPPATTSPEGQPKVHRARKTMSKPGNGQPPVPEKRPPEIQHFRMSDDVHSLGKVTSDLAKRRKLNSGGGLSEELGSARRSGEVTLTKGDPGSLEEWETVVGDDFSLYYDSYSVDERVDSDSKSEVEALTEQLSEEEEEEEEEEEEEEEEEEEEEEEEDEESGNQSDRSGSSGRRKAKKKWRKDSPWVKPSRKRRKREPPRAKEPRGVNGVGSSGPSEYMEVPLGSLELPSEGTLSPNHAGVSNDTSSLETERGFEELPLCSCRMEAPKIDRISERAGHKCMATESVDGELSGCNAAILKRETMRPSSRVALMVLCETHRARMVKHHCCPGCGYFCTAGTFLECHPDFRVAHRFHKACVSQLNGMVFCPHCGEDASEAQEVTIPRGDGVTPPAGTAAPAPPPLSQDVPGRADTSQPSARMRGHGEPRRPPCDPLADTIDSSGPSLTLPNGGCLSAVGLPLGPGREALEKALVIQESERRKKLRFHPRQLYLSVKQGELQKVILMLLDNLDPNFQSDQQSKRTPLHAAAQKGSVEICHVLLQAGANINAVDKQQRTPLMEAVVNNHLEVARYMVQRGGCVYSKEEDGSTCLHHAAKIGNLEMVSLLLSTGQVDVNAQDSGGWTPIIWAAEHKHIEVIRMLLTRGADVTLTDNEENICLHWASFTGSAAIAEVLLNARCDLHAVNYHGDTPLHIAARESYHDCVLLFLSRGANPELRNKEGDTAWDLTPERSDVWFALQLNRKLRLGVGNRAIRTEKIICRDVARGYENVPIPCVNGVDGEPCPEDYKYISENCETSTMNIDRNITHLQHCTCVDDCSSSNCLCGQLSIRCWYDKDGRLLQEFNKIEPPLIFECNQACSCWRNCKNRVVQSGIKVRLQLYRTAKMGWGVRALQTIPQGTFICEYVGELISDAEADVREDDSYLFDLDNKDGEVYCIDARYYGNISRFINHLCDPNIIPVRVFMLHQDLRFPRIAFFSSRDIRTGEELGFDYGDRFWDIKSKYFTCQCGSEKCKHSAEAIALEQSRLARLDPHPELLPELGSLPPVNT
T1 sequence (Q9H9B1 2-1298 limits assumed): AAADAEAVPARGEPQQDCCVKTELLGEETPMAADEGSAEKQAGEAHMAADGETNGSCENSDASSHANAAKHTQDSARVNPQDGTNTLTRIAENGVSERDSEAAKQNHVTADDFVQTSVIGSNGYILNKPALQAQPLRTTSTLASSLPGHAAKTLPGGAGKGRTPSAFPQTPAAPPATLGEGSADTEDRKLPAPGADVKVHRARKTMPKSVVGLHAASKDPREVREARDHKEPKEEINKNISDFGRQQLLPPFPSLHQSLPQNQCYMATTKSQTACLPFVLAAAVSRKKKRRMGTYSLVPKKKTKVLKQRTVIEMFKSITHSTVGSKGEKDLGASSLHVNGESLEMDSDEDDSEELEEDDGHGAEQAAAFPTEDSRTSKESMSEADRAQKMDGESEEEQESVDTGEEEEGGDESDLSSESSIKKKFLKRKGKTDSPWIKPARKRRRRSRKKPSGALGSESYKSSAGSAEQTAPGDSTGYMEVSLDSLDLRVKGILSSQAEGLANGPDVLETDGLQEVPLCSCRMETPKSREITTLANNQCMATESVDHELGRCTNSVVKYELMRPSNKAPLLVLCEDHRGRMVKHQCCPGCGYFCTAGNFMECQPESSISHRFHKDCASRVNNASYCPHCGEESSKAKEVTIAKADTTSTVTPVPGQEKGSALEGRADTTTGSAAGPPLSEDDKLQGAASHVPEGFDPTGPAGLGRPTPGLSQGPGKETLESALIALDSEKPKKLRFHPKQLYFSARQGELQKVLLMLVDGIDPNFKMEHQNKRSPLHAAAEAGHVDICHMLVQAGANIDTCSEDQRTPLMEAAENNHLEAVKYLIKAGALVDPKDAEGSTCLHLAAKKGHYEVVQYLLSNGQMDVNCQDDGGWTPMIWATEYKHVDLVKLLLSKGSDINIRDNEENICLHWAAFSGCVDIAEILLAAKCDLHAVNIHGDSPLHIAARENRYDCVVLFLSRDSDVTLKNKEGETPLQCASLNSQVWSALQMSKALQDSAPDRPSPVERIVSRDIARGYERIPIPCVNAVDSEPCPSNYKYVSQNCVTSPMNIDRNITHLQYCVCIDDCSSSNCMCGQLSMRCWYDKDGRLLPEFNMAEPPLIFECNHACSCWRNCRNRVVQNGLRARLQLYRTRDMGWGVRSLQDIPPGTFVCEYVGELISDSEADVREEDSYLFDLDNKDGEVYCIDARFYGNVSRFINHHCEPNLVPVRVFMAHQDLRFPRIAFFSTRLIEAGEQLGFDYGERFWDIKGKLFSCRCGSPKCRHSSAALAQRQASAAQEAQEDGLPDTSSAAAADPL
Protocol: For UNC0638 treatments cells were treated for 24 hours with UNC0638 at 2.5 μM or DMSO vehicle control. One experiment treated cells in light media with UNC0638, the other treated cells in heavy media. Both experiments included cells in medium media treated with DMSO for negative control pull-down with 3×MBTD355N.
UNC0638 treatment experiments used a Q-Exactive mass spectrometer (ThermoFisher Scientific). A 25 cm HPLC column with 3 μm Reliasil (Orochem) was used to separate peptides over a 4 hour gradient from 0 to 75% acetonitrile. Ions were generated using a custom nanospray source flowing at 250 nL/minute. Mass spectrometry settings were 70,000 MS1 resolution, data dependent selection of up to 20 precursor ions per cycle, dynamic exclusion of 30 seconds and isolation window of 2 m/z.
For UNC0638 experiments the treated vs. untreated ratio was determined by subtracting the value from 3×MBTD355N prior to dividing values from the light and heavy channels. Only proteins showing a two-fold signal to background ratio (3×MBT/3×MBTD355N) were evaluated as potential G9a/GLP substrates.

3×MBT domain of L3MBTL1 = assay: Triple SILAC pull-down, 3xMBT/3xMBTD355N ratio (cytoplasmic, nuclear and chromatin fractions of 293T cells); type: binding, human; details: for 3xMBT/D355N UNC Heavy: experiment with UNC0638 in heavy SILAC media; for 3xMBT/D355N UNC Light: experiment with UNC0638 in light SILAC media;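 as to all read-outs here: proteins quantified with MaxQuant, requiring at least two unique peptides and quantification in both label directions, normalized to the mean of proteins from a digested loading control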
[1] = SILAC ratio DMSO relative to UNC0638, pull-down with 3xMBT, all values in log base 2
[2] = SILAC ratio 3xMBT vs 3xMBTD355N pull-down, 293T cells, all values in log base 2
[3] = SILAC ratio DMSO/UNC0638 of protein pulled down with 3xMBT
[4] = SILAC ratio, pull-down 3xMBT vs 3xMBTD355N

Row | Molecule | Relative to UNC0638 UNC Heavy (G9a and GLP; [1]) [log base 2] | Relative to UNC0638 UNC Light (G9a and GLP; [1]) [log base 2] | Relative to UNC0638 Average (G9a and GLP; all values in log base 2) [log base 2] | 3xMBT/D355N UNC Heavy (3×MBT domain of L3MBTL1; [2]) [log base 2] | 3xMBT/D355N UNC Light (3×MBT domain of L3MBTL1; [2]) [log base 2] | Relative to UNC0638 UNC Heavy (G9a and GLP; [3]) [log base 2] | Relative to UNC0638 UNC Light (G9a and GLP; [3]) [log base 2] | Relative to UNC0638 Average (G9a and GLP) [log base 2] | Candidate G9a/GLP target (G9a and GLP) | 3xMBT/D355N UNC Heavy (3×MBT domain of L3MBTL1; [4]) [log base 2] | 3xMBT/D355N UNC Light (3×MBT domain of L3MBTL1; [4]) [log base 2]
1 | B1 | −3.85 | 1.78 | −1.03 | 3.61 | 3.86 |  |  |  |  |  | 
2 | B2 |  |  |  |  |  | 0.29 | 0.54 | 0.42 | ✓ | 2.24 | 2.27
3 | B3 |  |  |  |  |  | 0.57 | 0.28 | 0.43 | ✓ | 1.84 | 1.77
4 | B4 |  |  |  |  |  | 0.72 | −0.12 | 0.30 |  | 0.48 | 1.60
